According to the supplement of paper PMC7877785:
± gives the uncertainty stated by the source.

Assay: self-splicing fitness, log relative to wild type (ln ratio); higher = more splicing; Tetrahymena group I intron in knt gene, E. coli kanamycin selection, DiMSum; sequences stand for … in CUCUCU…GGAGGGAAAAGUUAUCAGGCAUGCACCUGGUAGCUAGUCUUUAAACCAAUAGAUUGCAUCGGUUUAAAAGGCAAGACCGUCAAAUUGCGGGAAAGGGGUCAACAGCCGUUCAGUACCAAGUCUCAGGGGAAACUUUGAGAUGGCCUUGCAAAGGGUAUGGUAAUAAGCUGACGGACAUGGUCCUAACCACGCAGCCAAGUCCUAAGUCAACAGAUCUUCUGUUGAUAUGGAUGCAGUUCACAGACUAAAUGUCGGUCGGGGAAGAUGUAUUCUUCUCAUAAGAUAUAGUCGGACCUCUCCUUAAUGGGAGCUAGCGGAUGAAGUGAUGCAACACUGGAGCCGCUGGGAACUAAUUUGUAUGCGAAAGUAUAUUGAUUAGUUUUGGAGUACUCGUGGUCG
Method in brief: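 DiMSum derived fitness as the error-weighted combination of fold changes across replicates, kanamycin versus no kanamycin, normalised to wild type. E. coli BL21(DE3) held the library, which randomised all eight P1ex-region intron nucleotides within the knt kanamycin-resistance gene on pET-22b(+). Six replicate transformations grew overnight at 37°C or 30°C on LB agar with or without 25 μg/mL kanamycin, also containing 100 μg/mL carbenicillin, 50 μM IPTG and 0.2% rhamnose, and pooled colonies were amplicon-sequenced on an Illumina HiSeq 2500.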

Sequence | self-splicing fitness (ln) (30 °C) | self-splicing fitness (ln) (37 °C)
GAACAGCAAUAUUACGAAGG | -2.59 ± 0.17 | -3.26 ± 0.28
GAACAGCAAUAUUACGAAUG | -2.42 ± 0.092 | -1.52 ± 0.096
GAACAGCAAUAUUACGACCG | -1.25 ± 0.14 | -0.315 ± 0.17
GAACAGCAAUAUUACGACGC | -0.0786 ± 0.067 | 0.151 ± 0.088
GAACAGCAAUAUUACGAGAA | -3.45 ± 0.25 | -1.44 ± 0.17
GAACAGCAAUAUUACGAUCG | -0.614 ± 0.085 | -0.564 ± 0.11
GAACAGCAAUAUUACGAUCU | -1.33 ± 0.055 | -0.287 ± 0.078
GAACAGCAAUAUUACGAUUU | -0.342 ± 0.05 | -0.476 ± 0.064
GAACAGCAAUAUUACGCAAG | -3.31 ± 0.23 | -1.41 ± 0.17
GAACAGCAAUAUUACGCCAA | -1.94 ± 0.42 | -2.06 ± 0.32
GAACAGCAAUAUUACGCUAG | -1.69 ± 0.098 | -0.109 ± 0.092
GAACAGCAAUAUUACGCUUA | -1.2 ± 0.084 | -0.826 ± 0.099
GAACAGCAAUAUUACGGAGG | -3.02 ± 0.14 | -2.54 ± 0.2
GAACAGCAAUAUUACGGCAG | -2.31 ± 0.12 | -3.02 ± 0.24
GAACAGCAAUAUUACGGCUA | -0.474 ± 0.077 | -0.117 ± 0.084
GAACAGCAAUAUUACGGGGG | -2.08 ± 0.15 | -2.42 ± 0.2
GAACAGCAAUAUUACGGGUU | -2.91 ± 0.1 | -2.04 ± 0.11
GAACAGCAAUAUUACGUAGC | -0.75 ± 0.074 | -0.22 ± 0.1
GAACAGCAAUAUUACGUAUA | -0.835 ± 0.083 | -0.324 ± 0.1
GAACAGCAAUAUUACGUAUG | -1.02 ± 0.091 | -0.888 ± 0.12
GAACAGCAAUAUUACGUCAG | -2.51 ± 0.21 | -3.2 ± 0.36
GAACAGCAAUAUUACGUGCU | -2.89 ± 0.14 | -1.88 ± 0.14
GAACAGCAAUAUUACGUUAC | -2.53 ± 0.14 | -1.32 ± 0.16
GAAGAGCAAUAUUACGACAU | -2.22 ± 0.017 | -1.35 ± 0.035

Sequence | self-splicing fitness (ln) (30 °C) | self-splicing fitness (ln) (37 °C)
GAAGAGCAAUAUUACGACGC | -1.55 ± 0.15 | 0.291 ± 0.16
GAAGAGCAAUAUUACGAGUG | -4.54 ± 0.41 | -2.81 ± 0.24
GAAGAGCAAUAUUACGCAAA | – | -2.69 ± 0.33
GAAGAGCAAUAUUACGCAAG | -3.6 ± 0.39 | -2.68 ± 0.36
GAAGAGCAAUAUUACGCAAU | -3.87 ± 0.2 | -1.65 ± 0.13
GAAGAGCAAUAUUACGCACC | -0.341 ± 0.2 | 0.037 ± 0.22
GAAGAGCAAUAUUACGCAGA | -2.65 ± 0.32 | -2.73 ± 0.41
GAAGAGCAAUAUUACGCCAA | – | -2.54 ± 0.45
GAAGAGCAAUAUUACGCCCG | -1.59 ± 0.47 | –
GAAGAGCAAUAUUACGCCUA | -2.55 ± 0.34 | -1.3 ± 0.25
GAAGAGCAAUAUUACGCGAA | -3.32 ± 0.23 | -2.94 ± 0.38
GAAGAGCAAUAUUACGCUAG | -4.24 ± 0.37 | -1.13 ± 0.21
GAAGAGCAAUAUUACGGAGC | – | -1.64 ± 0.37
GAAGAGCAAUAUUACGGAUU | -2.29 ± 0.15 | -1.79 ± 0.19
GAAGAGCAAUAUUACGGCAG | -4.54 ± 0.36 | -1.97 ± 0.23
GAAGAGCAAUAUUACGGCUA | -1.5 ± 0.15 | -0.512 ± 0.15
GAAGAGCAAUAUUACGGCUU | -0.88 ± 0.14 | 0.407 ± 0.13
GAAGAGCAAUAUUACGGGAC | -3.76 ± 0.25 | -2.3 ± 0.24
GAAGAGCAAUAUUACGUACG | -3.52 ± 0.25 | -2.15 ± 0.22
GAAGAGCAAUAUUACGUAGA | -4.54 ± 0.42 | -2.21 ± 0.25
GAAGAGCAAUAUUACGUCCU | -2.59 ± 0.48 | -0.861 ± 0.29
GAAGAGCAAUAUUACGUUUG | -4.05 ± 0.2 | -2.8 ± 0.23
GAAUAGCAAUAUUACGAAAC | -1.62 ± 0.24 | -0.632 ± 0.17
GAAUAGCAAUAUUACGAACU | -0.471 ± 0.085 | 0.508 ± 0.1

Sequence | self-splicing fitness (ln) (30 °C) | self-splicing fitness (ln) (37 °C)
GAAUAGCAAUAUUACGAAGA | -2.78 ± 0.33 | -1.45 ± 0.25
GAAUAGCAAUAUUACGAAUC | -2.32 ± 0.14 | -0.98 ± 0.14
GAAUAGCAAUAUUACGACUA | -1.42 ± 0.2 | -0.533 ± 0.31
GAAUAGCAAUAUUACGAGAG | -2.92 ± 0.2 | -3.05 ± 0.28
GAAUAGCAAUAUUACGAGCG | -1.62 ± 0.069 | -0.354 ± 0.076
GAAUAGCAAUAUUACGAUGC | -1.02 ± 0.095 | -0.245 ± 0.12
GAAUAGCAAUAUUACGCAAA | -3.06 ± 0.38 | -1.75 ± 0.27
GAAUAGCAAUAUUACGCAAU | -2.31 ± 0.11 | -0.898 ± 0.15
GAAUAGCAAUAUUACGCCAG | -2.58 ± 0.24 | -1.69 ± 0.3
GAAUAGCAAUAUUACGCGCG | -0.825 ± 0.1 | -0.591 ± 0.13
GAAUAGCAAUAUUACGCUAG | -2.22 ± 0.16 | -0.535 ± 0.14
GAAUAGCAAUAUUACGGACC | -0.00208 ± 0.1 | 0.0435 ± 0.18
GAAUAGCAAUAUUACGGCGA | -1.11 ± 0.11 | -0.3 ± 0.11
GAAUAGCAAUAUUACGGCUA | -0.51 ± 0.15 | -0.595 ± 0.14
GAAUAGCAAUAUUACGGGAG | – | -3.35 ± 0.33
GAAUAGCAAUAUUACGGGCG | -1.16 ± 0.078 | -0.509 ± 0.1
GAAUAGCAAUAUUACGGGUG | -3.74 ± 0.15 | -1.03 ± 0.095
GAAUAGCAAUAUUACGUGCA | -0.851 ± 0.083 | -0.317 ± 0.11
GAAUAGCAAUAUUACGUUCG | -1.16 ± 0.13 | -0.541 ± 0.17
GAAUAGCAAUAUUACGUUUG | -1.61 ± 0.15 | -1.05 ± 0.15
GACAAGCAAUAUUACGAAAC | -2.29 ± 0.18 | -2.5 ± 0.17
GACAAGCAAUAUUACGAGAC | -2.95 ± 0.27 | -2.29 ± 0.27
GACAAGCAAUAUUACGAGGG | -4.27 ± 0.18 | -2.81 ± 0.15
GACAAGCAAUAUUACGAUAA | -1.68 ± 0.11 | -0.345 ± 0.1

Sequence | self-splicing fitness (ln) (30 °C) | self-splicing fitness (ln) (37 °C)
GACAAGCAAUAUUACGAUGA | -0.527 ± 0.078 | -0.303 ± 0.085
GACAAGCAAUAUUACGAUGG | -2.52 ± 0.1 | -2.14 ± 0.16
GACAAGCAAUAUUACGCACC | -1.43 ± 0.14 | -0.635 ± 0.19
GACAAGCAAUAUUACGCGGC | -2.75 ± 0.17 | -3.11 ± 0.21
GACAAGCAAUAUUACGGAGU | -3.03 ± 0.1 | -0.954 ± 0.1
GACAAGCAAUAUUACGGCGA | -0.213 ± 0.074 | 0.21 ± 0.085
GACAAGCAAUAUUACGGCGC | -0.29 ± 0.098 | 0.11 ± 0.12
GACAAGCAAUAUUACGGGAC | -2.13 ± 0.25 | -1.02 ± 0.4
GACAAGCAAUAUUACGUAGA | -2.31 ± 0.092 | -0.707 ± 0.097
GACAAGCAAUAUUACGUCAG | -3.3 ± 0.23 | -2.21 ± 0.2
GACAAGCAAUAUUACGUGCC | -1.69 ± 0.14 | -1.21 ± 0.17
GACAAGCAAUAUUACGUGGC | -4.6 ± 0.32 | -1.61 ± 0.11
GACAAGCAAUAUUACGUGUA | -1.56 ± 0.071 | -0.227 ± 0.078
GACAAGCAAUAUUACGUUGC | -3.63 ± 0.14 | -2.31 ± 0.16
GACCAGCAAUAUUACGAAAG | -2.49 ± 0.1 | -2.58 ± 0.18
GACCAGCAAUAUUACGAAGA | -1.44 ± 0.14 | -0.589 ± 0.12
GACCAGCAAUAUUACGAAUC | -0.584 ± 0.096 | -0.196 ± 0.1
GACCAGCAAUAUUACGAGAA | -1.67 ± 0.15 | -1.05 ± 0.15
GACCAGCAAUAUUACGAGAC | -0.715 ± 0.15 | -1.49 ± 0.18
GACCAGCAAUAUUACGAGUA | -1.03 ± 0.087 | 0.128 ± 0.084
GACCAGCAAUAUUACGAUAA | -1.53 ± 0.094 | -1.13 ± 0.1
GACCAGCAAUAUUACGAUAG | -1.73 ± 0.074 | -1.45 ± 0.11
GACCAGCAAUAUUACGCCUG | -2.16 ± 0.11 | -0.614 ± 0.12
GACCAGCAAUAUUACGCGUC | -4.75 ± 0.38 | -2.54 ± 0.22
